Test: Aldol cleavage reaction of fructose 1,6-bisphosphate, coupled with TIM/G3PDH, NADH 340 nm
Format: biochemical
Settings: F1,6P2 cleaved, 37° C., 30 minutes, pH 8.0
Experimental: The aldolase activity of the human 35 kd protein was determined as follows, according to the method described in a reference (Novel Biochemistry Experiment Lectures, Vol. 15, Metabolism Abnormality, p. 111, edit. Biochemical Society of Japan, publish. Tokyo Kagaku Dojin-sha, Sep. 22, 1992):
Conjugated with triose phosphate isomerase (TIM) and glycerol 3-phosphate dehydrogenase (G3PDH), the aldol cleavage reaction of fructose 1,6-bisphosphate (F1, 6P2) with the 35 kd protein was determined with NADH.
A reaction liquid having the composition mentioned below was prepared, and reacted at 37° C. for 30 minutes. The enzymatic reaction was monitored through the reduction in the 340 nm absorbance owing to the oxidation of NADH in the reaction liquid. The enzymatic reaction was indicated by the number of mols of F1, 6P2, per mg of the protein, cleaved within 1 minute (μmol/min/mg protein).
Reaction liquid 200 μl: 0.25 mM tris HCl buffer (pH 8.0), 0.15 M NaCl, 0.5 mM F1, 6P2 (from Sigma), human 35 kd protein, human liver TIM (500 μg/ml), rabbit skeletal muscle G3PDH (8 units/ml, from Sigma), 0.3 mM NADH (from Nakarai).
For comparison, a commercial product aldolase, Sigma's rabbit skeletal muscle aldolase (A-type aldolase), and an enzyme-free system were tested in the same manner.

## Sigma's commercial product aldolase: commercial product aldolase, Sigma's rabbit skeletal muscle aldolase (A-type aldolase)
  Aldolase Activity (μmol/min/mg protein): 0.278 μmol/min/mg protein

— patent US7371842B2, “Polynucleotide encoding a 35 KDA protein thats binds to WF00144” (Astellas Pharma Inc., priority 2002, dated 2008)
